B1: SD-382591-afuc (antibody, V domains shown)
VH: EVQLVQSGAEVKKPGASVKVSCKASGYTFTSYDINWVRQAPGQGLEWMGWIFPGDGTSKYAQKFQGRVTMTTDTSTSTAYMELSSLRSEDTAVYYCARRLGSHWGQGTTVTVSS
VL: DIQLTQSPSSLSASVGDRVTITCKASQSVDSDGDSYMNWYQQKPGKAPKLLIYGASNLESGVPSRFSGSGSGTDFTLTISSLQPEDFATYYCQQSHEYPFTFGQGTKLEIK
notes: afucosylated (FUT8 knock-out CHO)
B2: SD-741396-afuc (antibody, V domains shown)
VH: B1 VH
VL: B1 VL with V19A, V62I, L82V
notes: as for B1
B3: SD-638526-afuc (antibody, V domains shown)
VH: B1 VH with T74K
VL: B1 VL with V19A, V62I, L82V
notes: as for B1
B4: SD-844257-afuc (antibody, V domains shown)
VH: B1 VH with V20L, M48I, V68A, M70L, V110L
VL: B1 VL
notes: as for B1
B5: SD-710726-afuc (antibody, V domains shown)
VH: B1 VH with V20L, M48I, V68A, M70L, T74K, V110L
VL: B1 VL
notes: as for B1
B6: SD-757052-afuc (antibody, V domains shown)
VH: B1 VH with V20L, M48I, V68A, M70L, V110L
VL: B1 VL with V19A, V62I, L82V
notes: as for B1
B7: SD-633416-afuc (antibody, V domains shown)
VH: B1 VH with T72R, A79V
VL: B1 VL with L4M
notes: as for B1
B8: SD-577776-afuc (antibody, V domains shown)
VH: B1 VH with V20L, M48I, V68A, M70L, T74K, V110L
VL: B1 VL with V19A, V62I, L82V
notes: as for B1
B9: SD-787077-afuc (antibody, V domains shown)
VH: B1 VH with T74K
VL: B1 VL
notes: as for B1
B10: SD-233883-afuc (antibody, V domains shown)
VH: EVQLQQFGAELVKPGASVKLSCKASGYTFTSYDINWVRQRPEQGLEWIGWIFPGDGTSKYNEKFKGKATLSTDKSSSTAYMQLSRLTIEDSAVYFCARRLGSHWGQGSTLTVSS
VL: DIVLTQSPASLAVSLGQRATISCKASQSVDSDGDSYMNWYQQKPGQPPKLLIYGASNLESGIPARFSGSGSGTDFSLNIHPVEEEDAATYYCQQSHEYPFTFGGGTKLEIK
notes: afucosylated, made in FUT8 knock-out CHO cells; also called chimera
B11: SD-837152-afuc (antibody, V domains shown)
VH: B1 VH with E1Q, G44R, A61N, Q62E, Q65K, M70I, T72R, T76A, T109L
VL: DIVLTQSPASLAVSPGQRATITCKASQSVDSDGDSYMNWYQQKPGQPPKLLIYGASNLESGVPARFSGSGSGTDFTLTINPVEANDTANYYCQQSHEYPFTFGQGTKLEIK
notes: as for B1

Where a chain is given by its changes, count along the chain named.

One test addresses T1, human EGFRvIII overexpressed on cells (F98npEGFRvIII, U87MG-EGFRvIII, FaDu-EGFRvIII) (human, UniProt P00533 25-1210). Briefly: cell-based or functional assay.
Turning to B1, the “ADCC EC50 (nM), F98 EGFRvIII cells with PBMC” value came to 0.106 nM.

On to B2, for which the “ADCC EC50 (nM), F98 EGFRvIII cells with PBMC” value turned out to be 0.123 nM.

On to B3, for which the “ADCC EC50 (nM), F98 EGFRvIII cells with PBMC” value came to 0.111 nM.

Turning to B4, the “ADCC EC50 (nM), F98 EGFRvIII cells with PBMC” value amounted to 0.0738 nM.

As for B5, the “ADCC EC50 (nM), F98 EGFRvIII cells with PBMC” value turned out to be 0.0168 nM.

Consider B6, for which the “ADCC EC50 (nM), F98 EGFRvIII cells with PBMC” value was 0.0562 nM.

With B7, the “ADCC EC50 (nM), F98 EGFRvIII cells with PBMC” value came out at 0.289 nM.

For the molecule B8, the “ADCC EC50 (nM), F98 EGFRvIII cells with PBMC” value was determined as 0.0687 nM.

With B9, the “ADCC EC50 (nM), F98 EGFRvIII cells with PBMC” value was found to be 0.0605 nM.

For B10, the “ADCC EC50 (nM), F98 EGFRvIII cells with PBMC” value is 0.0082 nM.

In the next test the target is T1, human EGFRvIII overexpressed on cells …. Briefly: cell-based or functional assay. The source holds these as a separate data set.
With B11, the “ADCC EC50 (nM), U87MG-EGFRvIII cells with PBMC” value came out at 0.0036 nM.

As for B10, the “ADCC EC50 (nM), U87MG-EGFRvIII cells with PBMC” value is 0.0026 nM.

Another test shares this target. The test is described as follows: cell-based or functional assay. The source holds these as a separate data set.
For B11, the “ADCC EC50 (nM), FaDu-EGFRvIII cells with PBMC” value came out at 0.0058 nM.

Take B10: the “ADCC EC50 (nM), FaDu-EGFRvIII cells with PBMC” value was determined as 0.0039 nM.

Another test shares this target. Briefly: flow cytometry, F98npEGFRvIII cells, n=3. For orientation: In flow cytometry, cells or beads pass a laser one at a time.
As to B1, it took 4.13 nM to reach a half-maximal effect (EC50).

Regarding B2, a half-maximal response (EC50) required 5.12 nM.

For B3, the EC50 – broadly, the concentration at which the effect is half-maximal – was 3.21 nM.

The molecule B4 returned a concentration for a half-maximal effect (EC50) of 3.85 nM.

In turn, B5 had an EC50 of 4.02 nM.

B6 came in with an EC50 of 4.17 nM.

Turning to B7, the EC50 stood at 13.8 nM.

B8 displayed an EC50 of 3.46 nM.

B9 showed an EC50 of 3.91 nM.

Regarding B10, the EC50 turned out to be 2.07 nM.

The target is the same in a further test. The test is described as follows: flow cytometry, FaDu-EGFRvIII cells, n=3.
Regarding B11, the EC50 amounted to 4.98 nM.

B10: the EC50 was 3.13 nM.

A further test has the same target. The test is described as follows: flow cytometry, U87MG-EGFRvIII cells, n=3.
Molecule B11 yielded an EC50 of 5.75 nM.

As for B10, the EC50 turned out to be 4.05 nM.

In another test the target is T2, human EGFRvIII, purified recombinant protein (Acro Biosystems Cat #EGI-H52H4) (human, UniProt P00533 25-645).
T2 construct: Bought protein; the deletion must be applied; also called truncated human EGFRvIII; huEGFRvIII
The test is described as follows: ELISA, antigen coated at 1 ug/mL, anti-human IgG-HRP, n=3.
With B1, the EC50 was determined as 0.103 nM.

Take B11: the EC50 was 0.155 nM.

With B2, the EC50 was determined as 0.091 nM.

With B3, the EC50 is 0.102 nM.

On to B4, for which the EC50 turned out to be 0.111 nM.

As for B5, the EC50 was found to be 0.137 nM.

As to B6, the EC50 stood at 0.112 nM.

For B7, the EC50 came to 0.121 nM.

For the molecule B8, the EC50 was determined as 0.122 nM.

With B9, the EC50 is 0.126 nM.

Turning to B10, the EC50 was 0.144 nM.

The next test concerns the target T3, human EGFR, purified recombinant protein (Acro Biosystems Cat #EGR-H5222) (human, UniProt P00533 25-645).
T3 construct: Bought protein; also called EGFR1; full length human EGFR1
Briefly: ELISA, plate coated with human EGFR1, anti-human IgG-HRP, OD450. On the technique in general: An ELISA detects its analyte on a solid surface through an enzyme-linked reagent.
As to B1, the binding result is recorded as “no binding”.

As for B3, the binding result is recorded as “no binding”.

Take B7: the binding result was “no binding”.

Turning to B8, the binding result was “no binding”.

Take B10: the binding result is reported as “no binding”.

A further test deals with T4, wild type human EGFR1 on cells (F98 EGFR1; wild type U87MG; wild type FaDu) (human, UniProt P00533 25-1210).
T4 construct: whole, on cells
The test is described as follows: flow cytometry on F98 EGFR1 cells, anti-human IgG Fc Alexa Fluor 647, MFI.
Regarding B1, the binding result is recorded as “no binding”.

For the molecule B2, the binding result was “no binding”.

For B3, the binding result is listed as “no binding”.

Consider B4, for which the binding result is on record as “no binding”.

With B5, the binding result was “no binding”.

Turning to B6, the binding result is on record as “no binding”.

Take B7: the binding result is “no binding”.

In the case of B8, the binding result is “no binding”.

For the molecule B9, the binding result is listed as “no binding”.

As to B10, the binding result was “no binding”.

For a further test, the target named is T4, wild type human EGFR1 on cells (F98 …). Briefly: flow cytometry on wild type U87MG cells, anti-human IgG Fc Alexa Fluor 647, MFI.
As for B11, the binding result is on record as “no binding”.

For another test, the target named is T2, human EGFRvIII, purified recombinant …. The test is described as follows: SPR (Carterra LSA), antibody captured on anti-human IgG, antigen injected, 1:1 Langmuir fit.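 Note: EGFRvIII injected at five concentrations, fivefold serial dilution starting 500 nM, 5 min association then 15 min dissociation, double-referenced against interspot and buffer blank signals, global kinetic fit.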
On to B1, for which the Kd (as a rule, the concentration at which binding is half-saturated) was 131 nM; the koff (usually the rate constant with which the complex falls apart) came to 0.0087 s⁻¹; the kon (usually the second-order rate constant of association) amounted to 66000 M⁻¹ s⁻¹.

As to B11, the Kd was 60 nM, the koff came out at 0.0026 s⁻¹ and the kon was 43000 M⁻¹ s⁻¹.

For the molecule B2, the Kd amounted to 159 nM, the koff worked out at 0.011 s⁻¹ and the kon was found to be 66000 M⁻¹ s⁻¹.

For B3, the dissociation constant (Kd) worked out at 122 nM, the koff was 0.0088 s⁻¹ and the kon was 73000 M⁻¹ s⁻¹.

As to B4, the Kd worked out at 90 nM, the koff turned out to be 0.0048 s⁻¹ and the kon turned out to be 53000 M⁻¹ s⁻¹.

B5: the Kd was determined as 86 nM, the koff amounted to 0.0043 s⁻¹ and the kon was 51000 M⁻¹ s⁻¹.

In the case of B6, the Kd is 105 nM, the koff was 0.006 s⁻¹ and the kon came to 57000 M⁻¹ s⁻¹.

In the case of B7, the Kd worked out at 234 nM, the koff turned out to be 0.016 s⁻¹ and the kon was 67000 M⁻¹ s⁻¹.

With B8, the Kd is 100 nM, the koff is 0.0058 s⁻¹ and the kon was found to be 57000 M⁻¹ s⁻¹.

For the molecule B9, the Kd stood at 108 nM, the koff was 0.0077 s⁻¹ and the kon came out at 71000 M⁻¹ s⁻¹.

B10: the Kd amounted to 40 nM, the koff worked out at 0.003 s⁻¹ and the association rate constant (kon) is 74000 M⁻¹ s⁻¹.

Another test has as its target T3, human EGFR, purified recombinant …. The test is described as follows: SPR (Carterra LSA), antibody captured on anti-human IgG, EGFR1 injected in a 5-fold series from 500 nM.
Regarding B2, the binding result is “no binding”.

With B5, the binding result is “no binding”.

As to B6, the binding result was “no binding”.

The target is the same in a further test. The description is as above. This is another data set of the same source.
As for B11, the binding result is reported as “no binding”.

B4: the binding result is reported as “no binding”.

As for B9, the binding result was “no binding”.

These data come from patent US20240117056A1 (IBIO, published 2024).
